Columns and labels:
[1] = target: unrelated Fc-fused recombinant protein; test: ELISA, negative control Fc protein
[2] = target: T1, recombinant biotinylated CD137 protein (Fc-fusion protein, R&D Systems 838-4B) (human, UniProt Q07011 24-186, biotinylated, sites not stated); test: ELISA, lysate on biotinylated CD137-Fc
T1 construct: Bought Fc fusion; also called CD137-Fc
Experimental: (§1) Streptavidin-coated Maxisorp plates (Nunc catalog 436110) were blocked for 1 h in Starting Block T20 (Pierce) and then coated with biotinylated CD137 (using same antigen as in panning) or negative controls (an unrelated Fc-fused recombinant protein and human serum albumin) for 1 h. Plates were rinsed with TBST and diluted lysate was applied to plates for 1 h. Following additional rinses, wells were treated with HRP-conjugated anti-Centyrin antibody (PAB25) for 1 h and then assayed with POD (Roche catalog 11582950001).

[3] = target: T2, human serum albumin (human, UniProt P02768 25-609); test: ELISA, negative control HSA
T2 construct: Negative control of the ELISA; also called HSA
T2 sequence (P02768 25-609 limits assumed): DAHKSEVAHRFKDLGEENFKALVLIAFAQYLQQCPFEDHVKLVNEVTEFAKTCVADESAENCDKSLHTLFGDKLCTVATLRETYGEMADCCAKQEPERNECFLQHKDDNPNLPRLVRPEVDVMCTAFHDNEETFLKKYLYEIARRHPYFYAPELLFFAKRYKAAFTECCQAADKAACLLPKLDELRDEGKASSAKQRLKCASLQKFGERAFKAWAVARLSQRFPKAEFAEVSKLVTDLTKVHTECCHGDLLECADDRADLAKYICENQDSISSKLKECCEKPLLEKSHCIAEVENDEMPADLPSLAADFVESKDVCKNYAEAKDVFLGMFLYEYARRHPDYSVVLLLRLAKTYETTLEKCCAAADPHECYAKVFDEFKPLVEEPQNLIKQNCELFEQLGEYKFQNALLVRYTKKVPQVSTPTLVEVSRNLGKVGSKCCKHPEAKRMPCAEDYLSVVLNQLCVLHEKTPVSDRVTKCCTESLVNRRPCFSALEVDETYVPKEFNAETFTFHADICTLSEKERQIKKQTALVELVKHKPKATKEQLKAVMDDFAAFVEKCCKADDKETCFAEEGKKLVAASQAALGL
Experimental: as §1

[4] = target: unrelated Fc-fused recombinant protein (negative control); test: ELISA, bacterial lysate on plate-bound antigen, luminescence

| ELISA Fc Control (RLU) [1] [RLU] | ELISA CD137 (RLU) [2] [RLU] | ELISA HSA (RLU) [3] [RLU] | ELISA Fc Control (RLU) [4] [RLU] | Binder |
| --- | --- | --- | --- | --- |
| 1200 | 3.73e+06 | 720 |  | ISOP193BR9P1G9 (designed binder, not shown: small tags and cut ends) LPAPKNLVVSRVTEDSARLSWKQVTVAPEFDSFLIQYQESEKVGEAIVLTVPGSERSYDLTGLKPGTEYTVSIYGVKFPYYYATADSNPLSAIFTT |
| 1440 | 4.26e+06 | 720 |  | ISOP193AR9P1G8 (designed binder, not shown: small tags and cut ends) LPAPKNLVVSRVTEDSARLSWHATFGDPFDSFLIQYQESEKVGEAIVLTVPGSERSYDLTGLKPGTEYTVSIYGVGRHYTVYDSNPLSAIFTT |
| 14000 | 6.55e+06 | 2880 |  | ISOP193BR9P1B12 (designed binder, not shown: small tags and cut ends) LPAPKNLVVSRVTEDSARLSWPDESRPVRFDSFLIQYQESEKVGEAIVLTVPGSERSYDLTGLKPGTEYTVSIYGVLRPWIYATNDSNPLSAIFTT |
| 8320 | 8.86e+06 | 2880 |  | ISOP193BR9P1H6 (designed binder, not shown: small tags and cut ends) LPAPKNLVVSRVTEDSARLSWPDESRPVRFDSFLIQYQESEKVGEAIVLTVPGSERSYDLTGLKPGTEYTVSIYGVVGQWKYATADSNPLSAIFTT |
| 11800 | 3.5e+06 | 3280 |  | ISOP193BR9P1H2 (designed binder, not shown: small tags and cut ends) LPAPKNLVVSRVTEDSARLSWPDESRPVRFDSFLIQYQESEKVGEAIVLTVPGSERSYDLTGLKPGTEYTVSIYGVHTRDWTAWNASNPLSAIFTT |
| 1120 | 4.02e+06 | 720 |  | ISOP193AR9P1G5 (designed binder, not shown: small tags and cut ends) LPAPKNLVVSRVTEDSARLSWRISDRLPLFDSFLIQYQESEKVGEAIVLTVPGSERSYDLTGLKPGTEYTVSIYGVGRHYTVYDSNPLSAIFTT |
| 2560 | 4.63e+06 | 560 |  | ISOP193BR9P1E6 (designed binder, not shown: small tags and cut ends) LPAPKNLVVSRVTEDSARLSWGAITALFDSFLIQYQESEKVGEAIVLTVPGSERSYDLTGLKPGTEYTVSIYGVKFPYYYATADSNPLSAIFTT |
| 56900 | 4.99e+06 | 9600 |  | ISOP193BR9P1G11 (designed binder, not shown: small tags and cut ends) LPAPKNLVVSRVTEDSARLSWAGHYRKIRNFDSFLIQYQESEKVGEAIVLTVPGSERSYDLTGLKPGTEYTVSIYGVKFPYYYATADSNPLSAIFTT |
| 15900 | 6.15e+06 | 2160 |  | ISOP193BR9P1G2 (designed binder, not shown: small tags and cut ends) LPAPKNLVVSRVTEDSARLSWAGHYRKIRNFDSFLIQYQESEKVGEAIVLTVPGSERSYDLTGLKPGTEYTVSIYGVAEHWYYATQDSNPLSAIFTT |
| 1120 | 1.49e+07 | 240 |  | ISOP193ER9P1A10 (designed binder, not shown: small tags and cut ends) LPAPKNLVVSRVTEDSARLSWTAPDAAFDSFDIYYFEHPVGGEAIVLTVPGSERSYDLTGLKPGTEYLVTIYGVKGGHFSGPLSAIFTT |
| 1440 |  |  |  | ISOP193ER9P1G5 (designed binder, not shown: small tags and cut ends) LPAPKNLVVSRVTEDSARLSWTAPDAAFDSFDIYYFEHPVGGEAIVLTVPGSERSYDLTGLKPGTEYLVTIYGVKGGYLSMPLSAIFTT |
| 2560 | 7.86e+06 | 880 |  | ISOP193FR9P1G2 (designed binder, not shown: small tags and cut ends) LPAPKNLVVSRVTEDSARLSWTAPDAAFDSFTIYYFENENGGEAIVLTVPGSERSYDLTGLKPDTEYLVTIYGVKGGHWSRPLSAIFTT |
| 1840 | 1.5e+07 | 400 |  | ISOP193ER9P1F9 (designed binder, not shown: small tags and cut ends) LPAPKNLVVSRVTEDSARLSWTAPDAAFDSFHIYYGEHYNLGEAIVLTVPGSERSYDLTGLKPGTEYLVTIYGVKGGFWSTPLSAIFTT |
| 2480 | 8.91e+06 | 880 |  | ISOP193FR9P1G10 (designed binder, not shown: small tags and cut ends) LPAPKNLVVSRVTEDSARLSWTAPDAAFDSFTIYYFENENGGEAIVLTVPGSERSYDLTGLKPGTEYLVTIYGVKGGHWSRPLSAIFTT |
| 3520 | 5.78e+06 | 880 |  | ISOP193FR9P1A11 (designed binder, not shown: small tags and cut ends) LPAPKNLVVSRVTEDSARLSWTAPDAAFDSFAIQYWEGWEWGEAIVLTVPGSERSYDLTGLKPGTEYLVTIYGVKGGHWSRPLSAIFTT |
| 1440 | 1.38e+07 | 320 |  | ISOP193ER9P1G4 (designed binder, not shown: small tags and cut ends) LPAPKNLVVSRVTEDSARLSWTAPDAAFDSFDIYYFEHPVGGEAIVLTVPGSERSYDLTGLKPGTEYLVTIYGVKGGNFSFPLSAIFTT |
| 1680 | 1.1e+07 | 400 |  | ISOP193ER9P1D7 (designed binder, not shown: small tags and cut ends) LPAPKNLVVSRVTEDSARLSWTAPDAAFDSFDIYYGEHWKLGEAIVLTVPGSERSYDLTGLKPGTEYLVTIYGVKGGMSSNPLSAIFTT |
| 1600 | 1.61e+07 | 320 |  | ISOP193ER9P1B4 (designed binder, not shown: small tags and cut ends) LPAPKNLVVSHVTEDSARLSWTAPDAAFDSFDIYYFEHPVGGEAIVLTVPGSERSYDLTGLKPGTEYLVTIYGVKGGYLSMPLSAIFTT |
| 2640 | 8.09e+06 | 960 |  | ISOP193BR9P1G6 (designed binder, not shown: small tags and cut ends) LPAPKNLVVSRVTEDSARLSWDDQFEDWFDSFLIQYQESEQVGEAIVLTVPGSERSYDLTGLKPGTEYTVSIYGVHTRDWTAWNASNPLSAIFTT |
| 1440 | 8.66e+06 | 320 |  | ISOP193AR9P1A11 (designed binder, not shown: small tags and cut ends) LPAPKNLVVSRVTEDSARLSWALSSVHAYFDSFLIQYQESEKVGEAIVLTVPGSERSYDLTGLKPGTEYTVSIYGVQYVDGFFKSNPLSAIFTT |
| 2080 | 5.26e+06 | 1360 |  | ISOP193BR9P1H3 (designed binder, not shown: small tags and cut ends) LPAPKNLVVSRVTEDSARLSWNRLDSEWVAFDSFLIQYQESEKVGEAIVLTVPGSERSYDLTGLKPGTEYTVSIYGVVFRPWLAYNSNPLSAIFTT |
| 1520 | 3.84e+06 | 720 |  | ISOP193AR9P1F4 (designed binder, not shown: small tags and cut ends) LPAPKNLVVSRVTEDSARLSWLEQEQFVNHFDSFLIQYQESEKVGEAIVLTVPGSERSYDLTGLKPGTEYTVSIYGVQYVDGFFKSNPLSAIFTT |
|  |  |  | 400 | ISOP120FR5P1D7 (designed binder, not shown: small tags and cut ends) LPAPKNLVVSRVTEDSARLSWTAPDAAFDSFIIRYLEDISYGEAIVLTVPGSERSYDLTGLKPGTEYHVGIEGVKGGNVSWPLSAIFTT |
|  |  |  | 240 | ISOP120FR5P1F8 (designed binder, not shown: small tags and cut ends) LPAPKNLVVSRVTEDSARLSWTAPDAAFDSFIIRYLEDISYGEAIVLTVPGSERSYDLTGLKPGTEYHVGIEGVKGGNVSWPLSAIFTT |
| 960 | 6.74e+06 | 480 |  | ISOP193AR9P1A6 (designed binder, not shown: small tags and cut ends) LPAPKNLVVSRVTEDSARLSWKFGEVAFDSFLIQYQESEKVGEAIVLTVPGSERSYDLTGLKPGTEYTVSIYGVGRHYTVYDSNPLSAIFTT |
| 1200 | 4.18e+06 | 720 |  | ISOP193AR9P1E6 (designed binder, not shown: small tags and cut ends) LPAPKNLVVSRVTEDSARLSWKFHSPTFDSFLIQYQESEKVGEAIVLTVPGSERSYDLTGLKPGTEYTVSIYGVGRHYTVYDSNPLSAIVTT |
| 3520 | 7.14e+06 | 960 |  | ISOP193AR9P1C10 (designed binder, not shown: small tags and cut ends) LPAPKNLVVSRVTEDSARLSWPNHISIFDSFLIQYQESEKVGEAIVLTVPGSERSYDLTGLKPGTEYTVSIYGVGRFYTVFDSNPLSAIFTT |
| 2240 | 2.76e+06 | 1440 |  | ISOP193AR9P1B12 (designed binder, not shown: small tags and cut ends) LPAPKNLVVSRVTEDSARLSWTNEQITKYGFDSFLIQYQESEKVGEAIVLTVPGSERSYDLTGLKPGTEYTVSIYGVGAPYTVYDSNPLSAIFTT |
| 3040 | 3.72e+06 | 1040 |  | ISOP193AR9P1H8 (designed binder, not shown: small tags and cut ends) LPAPKNLVVSRVTEDSARLSWTNEQITKYGFDSFLIQYQESEKVGEAIVLTVPGSERSYDLTGLKPGTEYTVSIYGVGRFYTVFDSNPLSAIFTT |
| 1360 | 4.71e+06 | 640 |  | ISOP193BR9P1G3 (designed binder, not shown: small tags and cut ends) LPAPKNLVVSRVTEDSARLSWAQSNQQFDSFLIQYQESEKVGEAIVLTVPGSERSYDLTGLKPGTEYTVSIYGVVWQNWVAYNSNPLSAIFTT |

From patent US20220259289A1 (Janssen / Centocor, published 2022)
